Publication PMC3414502

Molecular target: CPM-PH-PLCß2 (N-terminal PH domain of PLCβ2)
Assay: other fluorescence titration; unlabelled γ-synuclein added in steps to CPM-labelled protein in solution (2 nM CPM-PLCβ2, also 0.5 nM); increase of CPM intensity; 20 mM Hepes pH 7.2, 160 mM NaCl, 1 mM DTT

Sequence of Human γ-synuclein (O76070 whole entry): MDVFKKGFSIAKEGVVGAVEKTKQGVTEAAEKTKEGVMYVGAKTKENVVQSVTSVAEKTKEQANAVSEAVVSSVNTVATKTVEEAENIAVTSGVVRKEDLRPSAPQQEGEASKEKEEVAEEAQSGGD
Sequence of CPM-PH-PLCß2 (N-terminal PH domain of PLCβ2) (Q00722 whole entry, the tested form may be a part): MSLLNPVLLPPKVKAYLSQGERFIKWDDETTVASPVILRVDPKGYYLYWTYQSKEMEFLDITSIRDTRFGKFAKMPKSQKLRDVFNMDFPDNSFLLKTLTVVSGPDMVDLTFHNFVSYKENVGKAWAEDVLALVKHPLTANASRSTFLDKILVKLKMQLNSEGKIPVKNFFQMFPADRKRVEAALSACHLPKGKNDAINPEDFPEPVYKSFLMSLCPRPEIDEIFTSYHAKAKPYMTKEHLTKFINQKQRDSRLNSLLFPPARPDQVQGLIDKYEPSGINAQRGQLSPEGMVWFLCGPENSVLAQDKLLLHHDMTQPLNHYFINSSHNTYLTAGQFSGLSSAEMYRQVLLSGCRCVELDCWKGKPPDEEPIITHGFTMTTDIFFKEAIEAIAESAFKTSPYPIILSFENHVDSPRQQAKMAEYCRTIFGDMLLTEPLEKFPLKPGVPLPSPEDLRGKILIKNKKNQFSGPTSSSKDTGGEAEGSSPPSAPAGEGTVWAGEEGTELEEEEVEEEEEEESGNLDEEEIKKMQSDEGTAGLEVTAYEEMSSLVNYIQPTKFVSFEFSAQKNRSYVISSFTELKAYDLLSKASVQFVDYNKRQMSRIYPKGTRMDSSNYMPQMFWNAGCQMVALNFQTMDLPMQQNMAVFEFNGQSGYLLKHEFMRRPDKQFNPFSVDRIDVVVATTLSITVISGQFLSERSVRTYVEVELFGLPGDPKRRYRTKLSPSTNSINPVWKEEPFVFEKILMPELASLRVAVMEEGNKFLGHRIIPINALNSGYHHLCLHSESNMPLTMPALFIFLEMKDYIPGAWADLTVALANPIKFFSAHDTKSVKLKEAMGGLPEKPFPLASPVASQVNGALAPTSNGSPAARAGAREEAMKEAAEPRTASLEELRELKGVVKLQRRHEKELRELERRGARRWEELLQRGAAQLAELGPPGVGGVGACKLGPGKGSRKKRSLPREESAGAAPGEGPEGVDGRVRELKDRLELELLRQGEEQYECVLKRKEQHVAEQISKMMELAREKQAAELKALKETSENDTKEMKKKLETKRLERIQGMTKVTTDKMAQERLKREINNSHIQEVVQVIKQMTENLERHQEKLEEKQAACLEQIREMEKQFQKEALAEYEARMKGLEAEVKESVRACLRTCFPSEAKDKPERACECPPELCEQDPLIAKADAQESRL

Human γ-synuclein (from UniProt O76070 1-127) (natural protein)
fold weaker affinity than for full length CPM-PLCβ2: > 50 fold
